Assay results published in article PMC4051775, “Intestinal Cell Barrier Function In Vitro Is Severely Compromised by Keratin 8 and 18 Mutations Identified in Patients with Inflammatory Bowel Disease” (PLoS ONE, 2014).
Positions count from the first letter of the chain named. In names and notes the source's numbering stands. One block for each binder: values may come before it.

Columns and labels:
Conditions in all cases: both partners purified
[1] = target: T1, keratin 8 wild type recombinant protein (human, UniProt P05787 1-483); experiment: SPR; published SPR data of Owens et al. (ref. 26) re-analysed here with ENZO: Enzyme Kinetics to calculate Kd; K8 wild type or mutant in solution, wild type K18 partner immobilised
T1 construct: keratin 8 (K8), wild type, recombinant protein; also called K8 WT; K8
T1 sequence (looked up): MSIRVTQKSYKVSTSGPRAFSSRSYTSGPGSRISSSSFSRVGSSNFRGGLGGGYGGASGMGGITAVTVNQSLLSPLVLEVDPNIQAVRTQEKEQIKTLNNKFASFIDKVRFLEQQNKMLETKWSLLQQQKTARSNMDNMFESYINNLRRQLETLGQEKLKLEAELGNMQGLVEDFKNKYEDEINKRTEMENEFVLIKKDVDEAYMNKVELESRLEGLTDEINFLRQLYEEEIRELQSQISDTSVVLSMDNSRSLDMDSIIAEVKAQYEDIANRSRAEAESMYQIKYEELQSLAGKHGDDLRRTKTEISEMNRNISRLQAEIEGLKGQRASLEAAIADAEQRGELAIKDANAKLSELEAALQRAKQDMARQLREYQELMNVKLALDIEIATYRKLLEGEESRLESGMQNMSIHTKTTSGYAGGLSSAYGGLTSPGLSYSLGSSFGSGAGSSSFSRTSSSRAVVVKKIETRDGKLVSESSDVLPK

[2] = target: T2, keratin 8 G62C recombinant protein (human, UniProt P05787 1-483, G62C); experiment: as above
T2 construct: keratin 8 (K8) with the IBD patient mutation G62C, recombinant protein; The mutation was found in IBD patients; also called K8 G62C
T2 sequence (looked up): T1 sequence (looked up) with G62C

[3] = target: T3, keratin 8 K464N recombinant protein (human, UniProt P05787 1-483, K464N); experiment: as above
T3 construct: keratin 8 (K8) with the IBD patient mutation K464N, recombinant protein; The mutation was found in IBD patients; also called K8 K464N
T3 sequence (looked up): T1 sequence (looked up) with K464N

[4] = target: T1, keratin 8 wild type recombinant protein; experiment: SPR; published SPR data of Owens et al. (ref. 26) re-analysed here with ENZO: Enzyme Kinetics to calculate Kd; monomeric K18 wild type or S230T in solution, wild type K8 immobilised

Kd [1]: 8.5 nM | Kd [2]: 26.2 nM | Kd [3]: 13.4 nM | Kd [4]: 8.5 nM
B1: keratin 18 wild type recombinant protein (natural protein, human, UniProt P05783 1-430, looked up)
chain: MSFTTRSTFSTNYRSLGSVQAPSYGARPVSSAASVYAGAGGSGSRISVSRSTSFRGGMGSGGLATGIAGGLAGMGGIQNEKETMQSLNDRLASYLDRVRSLETENRRLESKIREHLEKKGPQVRDWSHYFKIIEDLRAQIFANTVDNARIVLQIDNARLAADDFRVKYETELAMRQSVENDIHGLRKVIDDTNITRLQLETEIEALKEELLFMKKNHEEEVKGLQAQIASSGLTVEVDAPKSQDLAKIMADIRAQYDELARKNREELDKYWSQQIEESTTVVTTQSAEVGAAETTLTELRRTVQSLEIDLDSMRNLKASLENSLREVEARYALQMEQLNGILLHLESELAQTRAEGQRQAQEYEALLNIKVKLEAEIATYRRLLEDGEDFNLGDALDSSNSMQTIQKTTTRRIVDGKVVSETNDTKVLRH
notes: keratin 18 (K18), wild type, recombinant protein; also called K18 WT; K18

Kd [4]: 161 nM
B2: keratin 18 S230T recombinant protein (natural protein, human, UniProt P05783 1-430, looked up)
chain: B1 chain with S230T
notes: keratin 18 (K18) with the variation S230T found in an IBD patient and in controls, recombinant protein; Natural variant, earlier designated a polymorphism; also called K18 S230T
